The values below come from the NTF2 design screens of Basanta et al. (2020).

The data set can be described thus: protease stability score; higher = more stable; yeast display proteolysis, trypsin and chymotrypsin.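 Also: relative to predicted unfolded state with 0 unfolded-like and 1 meaning tenfold more protease.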
With “DEDEESSESFYRLWVELFETGNFEILERLFDPHVRIKIGDKHIHGMEEHIRESFHIIERFKGVQIRVDEVRLFDGRMDVHGELIINGQSVRMRIIVRKVNGRWHLTEMILD”, the protease stability score came out at 1.48. The value for “DEDEESSKLAIEFLLRALITGDEKTMSELLDPNARLVVNGVEIVGMHVIVRHFIEMRLERIHVRIRSWTVFDGRLLNDTELHRHINVNGVEEDRSNRVELFVKKVDGKWKLEMIIIN” was 2.63; that for “DEDEESTKHALELWEESMETGDEHDLKHLVDPHARLEVGDKTYHGREAVHVLFRRIDHLHDIRIDHVEVQGNKIHMDVTLNYYFNGRVEEEKFEILILKINGRWRIKSMRIK” was 1.78. The sequence “DEDEETAIRVVKEFWKAVMTGDERHLKEYFDPHTRLDVDGQDQHGREDLTEFMFHMRVERTTIHNWRLQGDYVYLHVHVVGQINGKSKETEFYIVVFKINGRWSIHHITIR” showed a protease stability score of 1.33. As for “DEDEETAREMVEHFLQILLTGDEHNLSRLMDPNARVQIGDKTLHGRVNFVKWIEELGLDRVDVQLRRSRVIGNKIHIHGEERFNGVTMESHVDAVKINGQWHIERVEHR”, the protease stability score is 0.629. The value for “DEDEETITRTLEFQRESLRTGDWKFIHRLFDPDARFLINGRDRHGRDLLIDILRKLGVEKINLHVHRMSYVGDKMRVETELVVGDFIFDTRLFEEKVNGKWLMRSMEIH” was 0.735; that for “DEDEETLHEIVEILIRWLKTGDFDAVLKNLDPDARVEINGQELHGREQWYRYIHEEWKKVKNLTIIVSRMHVQGDKVMFEGEVHFDGQRRDVSIDMRVVNGRFRTIKKEVK” was 1.28; that for “DEDEEVIRRMLETELNAVKTGDWRKFYELADPSVLVDIDGKKIHGRELWSRHLMHLRIDEIHIRIDHMDVVNGVAELHIKMEFRGTIDGVHRKQSTEVILFIKKIDGQWVIQKIEVR” was 1.27. For “DEDEEVSRRALEKWIKNFLTGNEDSVLELADPHMRIVQGDKEYHGRHEMRDMMTDWLREIRIKTVEERHFRVIDGRVDHHVTLHGIVNGKETVRRMIVISEKVDGKWILHSLEIR”, the protease stability score was determined as 0.907. The value for “DEDEEYAREMYRLSVEALSTGDEDTLRHLFDPDVKVSWNGKENIGMEQSLKHWHHLRIEFRRIKIEQVHIQGNKVRLNLRVDGYIRVDGKEDRVHMKSHSVYVKINGKWTMHSIEFE” was 1.79; that for “DEDEHARKFVLDRLQHAWETGDEETMEKLMDPNAKLHVNGQDFHGRDTWHKLLHDELRDMGIKHFEFELKSFESQGNKLIIDGLEISEFNGREFRHRVTLIVDKFNGRWVVQSVEIR” was 1.29. The value for “DEDEHDAEIWVRLVLKSLRTGDEEFLVKMADPNVRVEVGDKKDHGRNEFRKVVHKFKGVRREIHHVDVHIQGNKAEVEIHGKLNINGVEVHIIHIIRSEKVDGQWYISEVWIIIR” was 1.55; that for “DEDEHDSEIAVKLFVRHMETGDEDVLREYADPRTKILVNGRETHGWETYVKHMQETINKLGVKHTHFELKDVEVQGEKIIAHVRIELNFENHHTTINMILIIHKVDGRWHLKKMKIK” was 0.871. Consider “DEDEHDVRELIELVLQVERTGNWKIFERLADPNVRLNIDGQEFHGREEALKLREDLLHHWGVDNIEVTLEDVTFQGDKVNSHFTSQFNGREFELIVIIMKIDGKWFLHQIQVHER”, for which the protease stability score came to 1.19. “DEDEHEMRELIDKWLHNLKTGDEKRTEELMDPHAKIRTVINGVEYRFHGREMLHYLVQILGVDHMEIKHVEIRVQGNKVENHVDLTLIVGDKHVRTRMILVAEKIDGRWEVKSLFFNIE” gave a protease stability score of 1.96. The figure for “DEDEHFAENIIRILLHLIVTGDEDQLERLIDPHVKVTIGDKEFHGRLADEILREEIRIKRVHLRDFRIVNGRAESRFKLVGNWNGVETEFTKSVYIDKINGRWIITERHIT” is 1.16; for “DEDEHHIRTALEYLRHATETGDEELMSEMADPDVRVHVNGVELHGMESYEKWLHDVLREIRIRHVHLEDSKVIGDFVRLDLRVHTEVNGRHFRHQTILISFKYNGQWRIKSVIWR” it is 1.37; for “DEDEHHSELASRLMHETTRTGDETSFLNLADPDTRLDINGREFIGREEWVKFFHKWSKHLGAKVIDTRFNDLRVIDGRIKLDMEYIVHVGDKTMHHKMIVFALKVNGRWHLESLKFE” it is 0.436. The value for “DEDEHIERHLFEELIELLRTGDFRRLFELIDPHARFVVDGRDHHGMEYAMRERLRRLEEAGVKHIRIRRKDVINGRLHIHSSVNVNGVEQEERIIIEKVNGRWTITEIVID” was 1.26. “DEDEHKYRRAAEEFFKILRTGDEDLWKRYADPTPILLLLVGDKIDEYHGMEEVMRVLHEEWRRLGVDHMHVKRVDLQGEKVEMDFTRHIGDKTIRITIIVVVIDGRMKSVEIRTH”: the protease stability score was 0.8. The value for “DEDEHLARRLSTEVEKLMLTGDEHLIKRLLDPDARINVNGVDLHGRHHYITHLHRFLLEAGVDNVHSELTTWRVYGDYVHVHGTLHINGVRFNHHFLFEKVDGRWIIKWLDDR” was 1.12. The figure for “DEDEHLLEMALKYFLRHWKTGDEEMIMHLADPNVRLVVGDKKHHGREELFRFVHEMGANHIEVRDSELQGNKLILHLEVNVGDKRHDIKVVIEKIDGRWHLHSLEHR” is 1.65; for “DEDEHLVRYLVEELIKFEQTGNEDEWNRLADPNVRIEINGVENHGREQYRKAFYEWRIHSLTVHHIRIDVQGEKALSIVDTETDGEYNGRQTRVKTNLIIHTKKVDGRWLVHSLVIKTE” it is 1.25. The value for “DEDEHMRRIAYRLMWEVWHTGNFEELISLVDPHARVDIDGVELHGRENFTHELHERLRRMGVETQFRLRKVESYNGVVHIHTELEITIDGRNHKIDFIFYAHKINGRWRMKSEEYR” was 1.8. The sequence “DEDEHMVKHAIELILKSIITGDEDLWKRLFDPDVKIEVGDKDVHGRELATEFMKLWRDHMRFTHHEITRVETYNGRAHIHGRDRVTIDGQEMTRESHLVMIKVDGRWFLHSVHIK” registered a protease stability score of 1.07. The value for “DEDEHNVREFIERIMRILETGDEHDFKRMADPDVRFEIGDKLIHGMETWSEIHTDELKRIPNLKIQLRIHDVHAYNGRAHVHSHFVIEFDGKRHIIETEMFIIKINGQWHLRSIKYK” was 1.46; that for “DEDEHQSRHLAELIMRHIQTGDEEMIERLADPHARSNVNGVTDHGRNTMRWMKEFFKNLTLHIEDVRIVHIGNKVIVIIHLTVRFENREEHVIIIIISEKFDGRWWITEIEIRIK” was 0.505; that for “DEDEHRTKYWMQILIEVFKTGDWRRLWELFDPNVRLDINGKDSHGRRDMVRVFEEELRHMGINHIELRDFEIQGEKAIVHMTINVDGRRHELELIFLVVDGRVKEIRVHER” was 1.88. In turn, “DEDEHTIRELFKEFIIAQVTGDFERLHELLDPHARLEIDGVILHGREQWTKFMQHLLEYLGIKHVSFHLHHLDVQGEKVKLDSRVRLFFNGVHYEKRNIIIWRKFNGRWYLEESTIE” came in with a protease stability score of 1.48. The figure for “DEDEHVLEHIVRLLIRIHLTGNFDRLRELVDPHAQIIIGDKEYHGWHMLEKWLERMGIDHIHIRHNEIRYYGEFAVLHLDTEVSIDGQSLHQIVHLDVDKVDGKWRVKNIRTDHR” is 1.34; for “DEDEHYAREAVHLVYEILHTGDEHELMKYADPDTRIDIGDKTHIGRDRVVEAIHKMHKKLGVDHEVLTDSKVHWQGNKIEIYLKIEIHVGDKRFEMDIIIHLEKINGRWRVKSMRIDFR” it is 1.33. The figure for “DEDEKASKEFMRLVMEVLKTGDWKSLVDLADPHARLHINGREIHGREKISEILLHELDLLGFKHMEVRVHHVEVQGEKMKFDVRHSLDVNGVERHETSMIISVKFDGQWWLKEEIVK” is -0.07; for “DEDEKASKVFVRLIKESIETGDEDTITHLADPNVRVIIGDKELHGWEELSRILHELRIHRFIVRREHVYDGRVQIDGRMDTEINGKKFITEVHVDAIKINGVWWLHLVEIR” it is 1.38; for “DEDEKDAERAVKHWIKLMHTGDEELLIRLFDPHTRVEIDGVEFHGREKVTELFREFTKRVKNVRIILRRYRIVGEWIEVDTEVRVGDKSSEVHLVILKVDGKWIMHVEHYK” it is 1.85.

The sequence “DEDEKDTHIWIKILEHIWDTGDEESFERLADPNVRFIQGEKELHGRERLIRFLSKYKNLTFRSEDYHIVNGRALVRITNHVNGRDLEMIIYYEKVNGQWHNKEIELR” displayed a protease stability score of 1.27. The value for “DEDEKEAEHAAKLFSRHFRTGDEDLLREMIDPNVRIRIGDKELHGWEEFTRLMREWRFDDVHVEHIHVQGDKVIVDSILHVIINGRHIDFRSHIYIEKIDGRWVIRSFEIR” was 0.651; that for “DEDEKEAHELSRTIIESWLTGDEDSLSEMMDPHTRSDVNGRISHGREEASRVWHEEMRKLGVKHYEIKRVHSRVIDGRLDLHIYSRMHINGVSRSVELIFHIEKVNGRWLIKEVRVHLL” was 1.25; that for “DEDEKEATHWWRLLIKNIETGDEKSEKELLDPHARVEIGEFESVGRETVAEMWFRLMEHIRLKDSHEKDFDMQGDYMHVNGHVVGEYNGKHIKSDVRIILIVIDGRVKEVTVKIH” was 0.208. The figure for “DEDEKEIAKTVKELVHSLRTGDWEKITRMADPHVKIHVNGRELHGWEEMRRFEEEEFKRLGFKHRDVELKDFRYQGNFAHVHGNLVVEFNGVEEEIDQHIIILKVNGRWLITEIRHH” is 1.31; for “DEDEKELERVMREFMRVWLTGNEKDFKELMDPHVRLEIGDKEHHGREEAVRILHEWRRKLGVDHSDYHHIHVQGEKMHVRGISEYNGRTVEVIIEVLIINGKLRSVHVEFR” it is 2.57. The value for “DEDEKEQKEIADLWKKYVDTGDEKLLMELMDPTARLNIGDKRFHGRETFEHVMREIKKRYDHFELHIHHIDIQGEKIRMEGREINKFDGKTVDIRTRIRIIVVNGRITFLHHQLD” was 0.622; that for “DEDEKERKRDLDKLRHFLETGNEQHLLEMLDPHARVTVGDKELIGREDFSKWMLEMRIHHDEIKRLEIYNGRIHVDYEMDVEVGDKRFRTDFRITARKVNGRWILHSMEVK” was 1.54; that for “DEDEKESKEAIEISFRLWRTGNEEEIHNYADPRARLEVFINGRLIQRHGREDFSRFMNEQLKRLGIDHIHIERLEIQGEKVIVDIHITVNGQHFRLHQDARKVDGRWIIHDVKINLL” was 2.65. For “DEDEKEYTEMVLILSRMIETGDEDSLRRLMDPHAKIHINGKEIHGRELWVHILHEHKRKLGYDNIRVNVHRIWVHGDKIRVHGHLHIDGKEHEVHVHIEKINGRWVLRHDEIR”, the protease stability score was 1.68. Regarding “DEDEKFTKEVIELWIRALRTGDEHTLMRLMDPHVRFEDENYSLHGREDVSRWLIKLLVHLRLEESDEHDSKIIGDKAHLHITSNHIFNGKELHMEIHIIVFKINGRWFVHEVRFR”, the protease stability score amounted to 1.72. The figure for “DEDEKHARDLMKLWQLAMFTGDEDTLKRLVDPDMRLKYGEFELHGREDLLRFFKHWRLESRLETTDVRFQGDKLVAYGVRRHVSHIDGVEVEETRRVITYILKVDGQWYVKSVEIR” is 1.67; for “DEDEKHMEEWLRLLKHALVTGDFEMILRNLDPHYRNDINGREFHGWEFFDKLMKEIRVKDSHLTHIEIYDGKAISETNVDLHVDGKDVLLDTRVVIDKYNGRWIIRHVSID” it is 1.23.
